Measured values published in PMC3257359 (Cell research, 2011).
No end group written: not given here. *: point of attachment. Biotin = O=C1N[C@H]2[C@H](CS[C@H]2CCCCC(=O)*)N1

Biological target: T1, human PPARγ LBD (residues 206-477) (human, UniProt P37231-2 206-477)
T1 sequence: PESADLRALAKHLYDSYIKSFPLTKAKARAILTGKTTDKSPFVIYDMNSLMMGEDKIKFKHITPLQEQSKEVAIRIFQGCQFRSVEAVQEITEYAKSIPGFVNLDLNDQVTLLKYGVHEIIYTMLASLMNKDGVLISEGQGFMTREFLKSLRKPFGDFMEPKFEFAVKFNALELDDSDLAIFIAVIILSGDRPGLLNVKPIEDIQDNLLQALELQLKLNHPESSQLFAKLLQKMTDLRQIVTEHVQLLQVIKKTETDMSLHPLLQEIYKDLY
Assay: AlphaScreen or HTRF

B1: CBP-1 peptide (coactivator LXXLL motif of CBP), N-terminally biotinylated (peptide)
peptide: Biotin-SGNLVPDAASKHKQLSELLRGGSG
B1: binds.

B2: SRC2-3 peptide (coactivator LXXLL motif of steroid receptor coactivator 2), N-terminally biotinylated (peptide)
peptide: Biotin-QEPVSPKKKENALLRYLLDKDDTKD
B2: binds.

B3: SRC1-2 peptide (coactivator LXXLL motif of steroid receptor coactivator 1), N-terminally biotinylated (peptide)
peptide: Biotin-SPSSHSSLTERHKILHRLLQEGSP
B3: binds.

B4: SRC1-4 peptide (coactivator LXXLL motif of steroid receptor coactivator 1), N-terminally biotinylated (peptide)
peptide: Biotin-QKPTSGPQTPQAQQKSLLQQLLTE
B4: binds.
